# From publication PMC9482650, “Quantitative fragmentomics allow affinity mapping of interactomes” (Nature Communications, 2022)
# Experiments:
# Experiment in all cases: holdup assay
# Set-up in all cases: key: below the threshold = too weak to quantify, mostly under pKd 3.1 to 4
# DLG4_2, P78352 = molecular target: DLG4_2, P78352
# APBA1_2, Q02410 = molecular target: T1, APBA1_2, Q02410
# T1 sequence (Q02410 742-832, limits assumed, looked up): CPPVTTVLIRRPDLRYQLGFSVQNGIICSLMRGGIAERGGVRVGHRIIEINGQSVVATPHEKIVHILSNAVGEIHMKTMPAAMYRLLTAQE
# LNX1_2, Q8TBB1 = conditions: plain residues with an end cap or a label only (N-terminal biotin on a linker: ttds)
# TJP2_1, Q9UDY2 = molecular target: TJP2_1, Q9UDY2
# DLG3_2, Q92796 = molecular target: T2, DLG3_2, Q92796; conditions: plain residues with an end cap or a label only (N-terminal biotin on a linker: ttds)
# T2 sequence (Q92796 221-321, limits assumed, looked up): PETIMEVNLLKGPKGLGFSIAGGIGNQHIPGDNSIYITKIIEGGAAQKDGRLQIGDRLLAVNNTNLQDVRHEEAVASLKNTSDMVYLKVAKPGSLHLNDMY
# GRIP1_5, Q9Y3R0 = molecular target: T3, GRIP1_5, Q9Y3R0
# T3 sequence (Q9Y3R0 568-668, limits assumed, looked up): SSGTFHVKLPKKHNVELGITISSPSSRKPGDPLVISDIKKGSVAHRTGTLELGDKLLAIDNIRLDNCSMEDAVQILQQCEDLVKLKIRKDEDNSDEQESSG
# GRIP1_7, Q9Y3R0 = molecular target: T4, GRIP1_7, Q9Y3R0
# T4 sequence (Q9Y3R0 999-1096, limits assumed, looked up): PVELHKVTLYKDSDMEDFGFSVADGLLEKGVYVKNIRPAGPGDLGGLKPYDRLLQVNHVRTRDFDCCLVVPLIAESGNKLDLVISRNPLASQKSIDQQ
# DLG1_2, Q12959 = molecular target: DLG1_2, Q12959
# SNTG2, Q9NY99 = molecular target: T5, SNTG2, Q9NY99
# T5 sequence (Q9NY99 68-166, limits assumed, looked up): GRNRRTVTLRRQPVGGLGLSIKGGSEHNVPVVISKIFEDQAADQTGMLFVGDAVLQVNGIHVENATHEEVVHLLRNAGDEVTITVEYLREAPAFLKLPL
# NHERF2_2, Q15599 = molecular target: NHERF2_2, Q15599
# DLG4_1, P78352 = molecular target: DLG4_1, P78352
# Inadl_10, Q8NI35 = conditions: plain residues with an end cap or a label only (N-terminal biotin on a linker: ttds)
# NHERF3_4, Q5T2W1 = molecular target: T6, NHERF3_4, Q5T2W1
# T6 sequence (Q5T2W1 373-468, limits assumed, looked up): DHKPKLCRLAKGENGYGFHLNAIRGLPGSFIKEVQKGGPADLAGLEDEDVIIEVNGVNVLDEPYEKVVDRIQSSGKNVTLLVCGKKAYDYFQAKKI
# LIN7C, Q9NUP9 = molecular target: T7, LIN7C, Q9NUP9; conditions: plain residues with an end cap or a label only (N-terminal biotin on a linker: ttds)
# T7 sequence (Q9NUP9 88-185, limits assumed, looked up): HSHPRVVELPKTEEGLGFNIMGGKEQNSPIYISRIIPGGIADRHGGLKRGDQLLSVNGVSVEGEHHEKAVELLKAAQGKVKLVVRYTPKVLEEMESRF
# RAPGEF6, Q8TEU7 = molecular target: T8, RAPGEF6, Q8TEU7; conditions: plain residues with an end cap or a label only (N-terminal biotin on a linker: ttds)
# T8 sequence (Q8TEU7 525-625, limits assumed, looked up): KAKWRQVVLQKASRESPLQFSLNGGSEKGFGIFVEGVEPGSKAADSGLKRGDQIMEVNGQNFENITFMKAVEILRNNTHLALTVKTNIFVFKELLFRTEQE
# NHERF4_2, Q86UT5 = molecular target: NHERF4_2, Q86UT5
# HTRA3, P83110 = molecular target: T9, HTRA3, P83110; conditions: plain residues with an end cap or a label only (N-terminal biotin on a linker: ttds)
# T9 sequence (P83110 354-453, limits assumed, looked up): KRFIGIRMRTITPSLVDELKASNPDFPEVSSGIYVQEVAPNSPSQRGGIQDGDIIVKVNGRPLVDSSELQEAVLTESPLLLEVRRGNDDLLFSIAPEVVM
# FRMPD3, Q5JV73 = molecular target: FRMPD3, Q5JV73
# DLG3_3, Q92796 = molecular target: T10, DLG3_3, Q92796; conditions: plain residues with an end cap or a label only (N-terminal biotin on a linker: ttds)
# T10 sequence (Q92796 374-475, limits assumed, looked up): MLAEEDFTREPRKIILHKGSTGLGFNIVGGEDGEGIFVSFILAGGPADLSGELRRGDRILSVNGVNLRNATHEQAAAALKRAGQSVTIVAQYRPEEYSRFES
# LDB3, O75112 = molecular target: LDB3, O75112
# MAGI2_4, Q86UL8 = molecular target: MAGI2_4, Q86UL8
# PDLIM1, O00151 = molecular target: PDLIM1, O00151
# DFNB31_2, Q9P202 = molecular target: T11, DFNB31_2, Q9P202; conditions: plain residues with an end cap or a label only (N-terminal biotin on a linker: ttds)
# T11 sequence (Q9P202 274-371, limits assumed, looked up): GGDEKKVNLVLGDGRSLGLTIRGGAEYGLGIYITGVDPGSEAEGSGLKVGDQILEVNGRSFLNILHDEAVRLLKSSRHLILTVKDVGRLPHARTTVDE
# MAST1, Q9Y2H9 = conditions: plain residues with an end cap or a label only (N-terminal biotin on a linker: ttds)
# MAGI2_2, Q86UL8 = conditions: plain residues with an end cap or a label only (N-terminal biotin on a linker: ttds)
# GIPC2, Q8TF65 = molecular target: GIPC2, Q8TF65
# DLG1_3, Q12959 = molecular target: DLG1_3, Q12959
# [1] = plain residues with an end cap or a label only (N-terminal biotin on a linker: ttds)
# [2] = plain residues with an end cap or a label only (N-terminal biotin on a linker: ado-ado)
# Sequence of MAGI2_2, Q86UL8 (Q86UL8 410-522): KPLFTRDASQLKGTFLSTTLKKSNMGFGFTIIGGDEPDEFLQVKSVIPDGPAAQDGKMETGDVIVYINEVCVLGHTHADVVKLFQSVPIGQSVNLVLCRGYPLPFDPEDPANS
# Sequence of DLG1_2, Q12959 (Q12959 314-412): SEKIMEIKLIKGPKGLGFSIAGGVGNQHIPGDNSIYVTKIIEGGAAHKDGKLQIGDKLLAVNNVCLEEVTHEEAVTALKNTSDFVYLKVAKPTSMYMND
# Sequence of LDB3, O75112 (O75112 1-94): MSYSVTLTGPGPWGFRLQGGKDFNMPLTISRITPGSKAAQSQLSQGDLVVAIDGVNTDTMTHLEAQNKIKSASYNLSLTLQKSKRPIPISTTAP
# Sequence of FRMPD3, Q5JV73 (Q5JV73 12-100): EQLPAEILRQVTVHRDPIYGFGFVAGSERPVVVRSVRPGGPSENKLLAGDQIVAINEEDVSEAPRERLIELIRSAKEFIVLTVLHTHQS
# Sequence of TJP2_1, Q9UDY2 (Q9UDY2 24-128): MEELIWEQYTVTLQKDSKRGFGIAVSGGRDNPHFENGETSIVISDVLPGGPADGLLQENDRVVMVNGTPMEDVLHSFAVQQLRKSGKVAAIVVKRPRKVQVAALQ
# Sequence of MAST1, Q9Y2H9 (Q9Y2H9 962-1065): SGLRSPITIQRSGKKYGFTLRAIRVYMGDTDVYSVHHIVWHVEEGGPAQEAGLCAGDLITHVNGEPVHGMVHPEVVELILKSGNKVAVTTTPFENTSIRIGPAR
# Sequence of DLG1_3, Q12959 (Q12959 457-571): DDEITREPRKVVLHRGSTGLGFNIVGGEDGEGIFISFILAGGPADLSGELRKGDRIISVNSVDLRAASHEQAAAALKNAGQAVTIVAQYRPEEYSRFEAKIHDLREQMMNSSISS
# Sequence of PDLIM1, O00151 (O00151 1-87): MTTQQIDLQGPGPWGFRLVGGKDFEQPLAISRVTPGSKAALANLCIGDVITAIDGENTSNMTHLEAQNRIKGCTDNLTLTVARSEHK
# Sequence of Inadl_10, Q8NI35 (Q8NI35 1673-1763): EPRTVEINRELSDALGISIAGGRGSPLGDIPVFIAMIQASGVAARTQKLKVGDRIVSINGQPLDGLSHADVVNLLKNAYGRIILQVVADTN
# Sequence of GIPC2, Q8TF65 (Q8TF65 112-203): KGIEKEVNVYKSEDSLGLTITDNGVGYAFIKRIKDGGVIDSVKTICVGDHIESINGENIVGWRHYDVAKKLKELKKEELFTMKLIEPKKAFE
# Sequence of LNX1_2, Q8TBB1 (Q8TBB1 371-470): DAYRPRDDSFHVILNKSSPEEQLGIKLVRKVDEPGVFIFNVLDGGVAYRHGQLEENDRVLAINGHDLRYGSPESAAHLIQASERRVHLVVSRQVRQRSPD
# Sequence of NHERF4_2, Q86UT5 (Q86UT5 220-308): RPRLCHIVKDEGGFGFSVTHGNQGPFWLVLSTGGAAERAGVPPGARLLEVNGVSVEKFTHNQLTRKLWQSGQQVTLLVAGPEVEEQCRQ
# Sequence of DLG4_1, P78352 (P78352 62-152): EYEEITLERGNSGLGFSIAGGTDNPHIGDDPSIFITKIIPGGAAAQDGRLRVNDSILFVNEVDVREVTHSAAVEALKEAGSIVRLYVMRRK
# Sequence of MAGI2_4, Q86UL8 (Q86UL8 772-865): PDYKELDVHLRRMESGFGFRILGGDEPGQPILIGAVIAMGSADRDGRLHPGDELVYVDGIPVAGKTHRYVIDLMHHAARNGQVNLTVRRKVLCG
# Sequence of NHERF2_2, Q15599 (Q15599 142-238): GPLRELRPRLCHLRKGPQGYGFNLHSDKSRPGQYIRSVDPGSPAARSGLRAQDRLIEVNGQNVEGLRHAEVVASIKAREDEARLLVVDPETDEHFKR
# Sequence of DLG4_2, P78352 (P78352 155-259): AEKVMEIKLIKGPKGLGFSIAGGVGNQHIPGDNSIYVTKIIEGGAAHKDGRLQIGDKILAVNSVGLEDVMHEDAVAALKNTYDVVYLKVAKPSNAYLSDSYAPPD
Binder,"pKd (DLG4_2, P78352; [1])","pKd (APBA1_2, Q02410; [1])","pKd (LNX1_2, Q8TBB1)","pKd (TJP2_1, Q9UDY2; [1])","pKd (DLG3_2, Q92796)","pKd (GRIP1_5, Q9Y3R0; [1])","pKd (GRIP1_7, Q9Y3R0; [1])","pKd (DLG1_2, Q12959; [1])","pKd (SNTG2, Q9NY99; [1])","pKd (NHERF2_2, Q15599; [1])","pKd (DLG4_1, P78352; [1])","pKd (Inadl_10, Q8NI35)","pKd (NHERF3_4, Q5T2W1; [1])","pKd (LIN7C, Q9NUP9)","pKd (RAPGEF6, Q8TEU7)","pKd (NHERF4_2, Q86UT5; [1])","pKd (HTRA3, P83110)","pKd (FRMPD3, Q5JV73; [1])","pKd (DLG3_3, Q92796)","pKd (LDB3, O75112; [1])",other results
"SVWLRKETRV [CYSLTR2, Q9NS75]",5.38,3.84,3.4,4.45,5.32,below the threshold,3.77,5.78,5.09,3.78,4.92,below the threshold,3.48,5.03,3.44,below the threshold,below the threshold,below the threshold,5.34,below the threshold,"pKd (MAGI2_4, Q86UL8; [1]): 4.06; pKd (PDLIM1, O00151; [1]): below the threshold; pKd (DFNB31_2, Q9P202): 3.73; pKd (MAST1, Q9Y2H9): 5.29; pKd (MAGI2_2, Q86UL8): 5.68; pKd (GIPC2, Q8TF65; [1]): below the threshold; pKd (DLG1_3, Q12959; [1]): 5.57"
"SSRTRRETQL [HPV16-E6, P03126]",4.66,below the threshold,3.47,4.12,4.8,below the threshold,below the threshold,5.06,4.45,4.19,4.73,below the threshold,3.89,4.04,3.66,below the threshold,below the threshold,below the threshold,4.88,below the threshold,"pKd (MAGI2_4, Q86UL8; [1]): 3.89; pKd (DFNB31_2, Q9P202): below the threshold; pKd (MAST1, Q9Y2H9): 4.23; pKd (MAGI2_2, Q86UL8): 4.87; pKd (GIPC2, Q8TF65; [1]): below the threshold; pKd (DLG1_3, Q12959; [1]): 4.7"
"KSRVAFFEEL [NF2, P35240]",,,,,,,,,,,,,,,,,,,,,"pKd (DLG4_2, P78352; [2]): 3.78; pKd (APBA1_2, Q02410; [2]): 3.75; pKd (TJP2_1, Q9UDY2; [2]): 3.63; pKd (GRIP1_5, Q9Y3R0; [2]): 3.62; pKd (GRIP1_7, Q9Y3R0; [2]): 3.49; pKd (DLG1_2, Q12959; [2]): 3.5; pKd (SNTG2, Q9NY99; [2]): 3.74; pKd (NHERF2_2, Q15599; [2]): 3.89; pKd (DLG4_1, P78352; [2]): 3.63; pKd (NHERF3_4, Q5T2W1; [2]): 3.59; pKd (NHERF4_2, Q86UT5; [2]): 3.66; pKd (FRMPD3, Q5JV73; [2]): 3.5; pKd (LDB3, O75112; [2]): 3.9; pKd (MAGI2_4, Q86UL8; [2]): 3.83; pKd (PDLIM1, O00151; [2]): 3.76; pKd (GIPC2, Q8TF65; [2]): 3.48; pKd (DLG1_3, Q12959; [2]): 3.82"
"RSLEEEESQL [GRASP, Q7Z6J2]",3.84,3.65,3.56,3.65,3.63,3.87,below the threshold,below the threshold,below the threshold,5.07,3.63,below the threshold,below the threshold,3.78,3.56,below the threshold,below the threshold,3.63,3.81,3.68,"pKd (MAGI2_4, Q86UL8; [1]): 3.7; pKd (PDLIM1, O00151; [1]): 3.85; pKd (DFNB31_2, Q9P202): 3.83; pKd (MAST1, Q9Y2H9): 4.83; pKd (MAGI2_2, Q86UL8): below the threshold; pKd (GIPC2, Q8TF65; [1]): 4.17; pKd (DLG1_3, Q12959; [1]): 4.36"
"ERKLSSESQV [LRP4, O75096]",4.69,below the threshold,below the threshold,below the threshold,4.6,below the threshold,below the threshold,4.75,4.1,below the threshold,4.17,below the threshold,below the threshold,below the threshold,below the threshold,below the threshold,below the threshold,below the threshold,3.51,below the threshold,"pKd (MAGI2_4, Q86UL8; [1]): 3.83; pKd (PDLIM1, O00151; [1]): below the threshold; pKd (DFNB31_2, Q9P202): below the threshold; pKd (MAST1, Q9Y2H9): below the threshold; pKd (MAGI2_2, Q86UL8): 4.79; pKd (GIPC2, Q8TF65; [1]): 4.22; pKd (DLG1_3, Q12959; [1]): below the threshold"
"SRPQRTQTQV [HPV67-E6, A4U7F2]",4.96,3.54,below the threshold,3.86,5.06,below the threshold,below the threshold,5.01,3.98,below the threshold,4.58,below the threshold,below the threshold,below the threshold,below the threshold,below the threshold,below the threshold,below the threshold,4.3,below the threshold,"pKd (MAGI2_4, Q86UL8; [1]): 4.14; pKd (PDLIM1, O00151; [1]): below the threshold; pKd (DFNB31_2, Q9P202): below the threshold; pKd (MAST1, Q9Y2H9): 4.47; pKd (MAGI2_2, Q86UL8): 5.32; pKd (GIPC2, Q8TF65; [1]): below the threshold; pKd (DLG1_3, Q12959; [1]): 4.13"
